What was measured:
[1] = molecular target: SSB protein from Sulfolobus Solfataricus P2 (SSOB) (Sulfolobus Solfataricus P2) (UniProt Q97W73); assay: native gel or EMSA; 5 µg of ssob on non-denaturing gradient polyacrylamide gel, running buffer and gel at pH 7.4, poles reversed, Coomassie stained; self-association
[2] = molecular target: T1, SSB protein from Thermococcus kodakarensis KOD1 (KOD) (Thermococcus kodakarensis KOD1); assay: native gel or EMSA; 5 µg of SSB protein on 3.5–5–12% non-denaturing gradient polyacrylamide gel with NativeMarker, Coomassie stained; self-association; conditions: both partners purified
T1 chain: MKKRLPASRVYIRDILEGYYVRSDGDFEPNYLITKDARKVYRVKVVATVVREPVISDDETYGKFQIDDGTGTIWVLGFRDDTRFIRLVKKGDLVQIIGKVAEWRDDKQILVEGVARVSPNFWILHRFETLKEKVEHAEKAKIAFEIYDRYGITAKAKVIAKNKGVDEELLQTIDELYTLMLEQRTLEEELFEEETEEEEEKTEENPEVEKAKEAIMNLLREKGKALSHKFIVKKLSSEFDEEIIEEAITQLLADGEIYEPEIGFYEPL

[3] = molecular target: the molecule itself; assay: as above

SSB protein from Sulfolobus Solfataricus P2 (SSOB) (from UniProt Q97W73 1-148) (natural protein)
stoichiometry N [1]: 4

B1: SSB protein from Thermococcus kodakarensis KOD1 (KOD) (natural protein)
chain: MKKRLPASRVYIRDILEGYYVRSDGDFEPNYLITKDARKVYRVKVVATVVREPVISDDETYGKFQIDDGTGTIWVLGFRDDTRFIRLVKKGDLVQIIGKVAEWRDDKQILVEGVARVSPNFWILHRFETLKEKVEHAEKAKIAFEIYDRYGITAKAKVIAKNKGVDEELLQTIDELYTLMLEQRTLEEELFEEETEEEEEKTEENPEVEKAKEAIMNLLREKGKALSHKFIVKKLSSEFDEEIIEEAITQLLADGEIYEPEIGFYEPL
modifications: N-terminal His tag left out. The locus TK1959 (RPA41, the 41 kDa replication factor A subunit) is inferred from the printed 356 residues and 41.6 kDa; it is not printed in the paper. / N-terminal His
stoichiometry N [2]: 2

B2: SSB protein from Thermus thermophilus HB8 (TTH) (natural protein, UniProt Q5SLP9 1-263, looked up)
chain: MARGLNRVFLIGALATRPDMRYTPAGLAILDLTLAGQDLLLSDNGGEREVSWYHRVRLLGRQAEMWGDLLDQGQLVFVEGRLEYRQWEREGERRSELQIRADFLDPLDDRGKERAEDSRGQPRLRAALNQVFLMGNLTRDPELRYTPQGTAVARLGLAVNERRQGAEERTHFVEVQAWRDLAEWAAELRKGDGLFVIGRLVNDSWTSSSGERRFQTRVEALRLERPTRGPAQAGGSRSREVQTGGVDIDEGLEDFPPEEELPF
notes: printed length 263 residues, monomer 29.8 kDa; also called TTH SSB protein; source: E. coli BL21 (DE3), purified (70°C heat treatment, Ni2+ Sepharose, dialysis); not shown: His6, N-terminal, kept
stoichiometry N [3]: 2

— publication PMC3554691, “Systematic Functional Comparative Analysis of Four Single-Stranded DNA-Binding Proteins and Their Affection on Viral RNA Metabolism” (PLoS ONE, 2013)
